Where “and” joins values, the source holds several entries; their conditions need not be identical. Equal values may be shown once.
Assays:
[1] = target: Human IgG1 Fc bearing the Abdeg mutations (Fc^Abdeg, efgartigimod) (human); assay: SPR + BLI; Fc immobilised on chips / captured on biosensors; human or mouse FcRn at 1,600 nM to 50 nM in 2-fold dilutions, pH 6.0; Biacore 3000 and Octet K2 are both named
[2] = target: Wild-type human IgG1 Fc (human); assay: SPR + BLI; Fcs immobilised on chips or captured on biosensors; human or mouse FcRn at 1,600 nM to 50 nM in 2-fold dilutions, pH 6.0; Biacore 3000 and Octet K2 both named
[3] = target: Human IgG1 Fc bearing the Abdeg mutations (efgartigimod) (human); assay: as above
[4] = target: Human IgG1 Fc bearing the F241A mutation, produced in CHO-K1 cells coexpressing hST6GAL1 and hB4GALT1 (human); assay: as above
[5] = target: Specific ICAM-3–grabbing non-integrin-related-1 (SIGN-R1; CD209b) (UniProt Q8CJ91); assay: flow cytometry on cells (SIGN-R1+/+ murine BMDMs); details: type I FcγRs blocked; PBS control = 1; read off a plot
Sequence of Specific ICAM-3–grabbing non-integrin-related-1 (SIGN-R1; CD209b) (Q8CJ91 whole entry): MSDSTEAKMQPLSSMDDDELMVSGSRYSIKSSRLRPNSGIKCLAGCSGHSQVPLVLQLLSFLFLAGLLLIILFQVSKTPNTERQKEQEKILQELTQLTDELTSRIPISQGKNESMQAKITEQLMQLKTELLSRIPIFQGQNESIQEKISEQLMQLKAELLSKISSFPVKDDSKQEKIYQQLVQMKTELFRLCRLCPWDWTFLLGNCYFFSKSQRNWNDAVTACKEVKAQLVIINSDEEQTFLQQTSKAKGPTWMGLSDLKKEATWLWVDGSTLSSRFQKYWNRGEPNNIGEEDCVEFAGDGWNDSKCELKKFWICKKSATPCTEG

fold lower KD than that of Fc^F241A/B4ST6 [1] [fold]	Kd [3]	Kd [4]	Substance	also measured
267	–	–	Mouse neonatal Fc receptor (mFcRn) (from UniProt Q61559 22-297)	fold enhanced affinity compared with human FcRn [1]: > 10 fold
–	0.27 nM and 0.28 nM and 0.26 nM	50.8 nM and 77.5 nM and 86.7 nM	Mouse neonatal Fc receptor (FcRn) (from UniProt Q61559 22-297; P01887 21-119)	Kd [2]: 51.6 nM and 73.2 nM and 85.8 nM
39	–	–	Human neonatal Fc receptor (hFcRn) (from UniProt P55899 24-297)	fold enhanced affinity compared with Fc^F241A and Fc^WT [1]: 96 fold
–	6 nM	131 nM and 260 nM and 208 nM	Human neonatal Fc receptor (FcRn) (from UniProt P55899 24-297; P61769 21-119)	–
–	–	–	Wild-type human IgG1 Fc (Fc^WT) F241A	response (fold change in MFI (normalized to PBS)) [5]: 1.6

Reference: article PMC10866649
